Here are results for 1 molecule from doi:10.1101/2025.07.31.667872 (bioRxiv, 2025).

Common to all, as to settings: both partners purified
For assay [1], the target named is T1, RPN13 Pru (1–150), reduced (UniProt Q16186 1-150).
T1 construct: Kept in reducing ITC buffer (10 mM βME); also called redu RPN13^Pru; RPN13 (1–150); source: E. coli BL21(DE3) pLysS, purified (Talon resin, PreScission elution, Superdex 75); not shown: His6, N-terminal, cleaved
Briefly: ITC; RPN2 (940–953) in the syringe (156 μM), RPN13 Pru in the cell (15.6 μM); 25 °C, reducing buffer: 20 mM sodium phosphate, 50 mM NaCl, 10 mM βME, pH 6.0; one-site fit. (ITC needs no label: the signal is the heat of the interaction.)

Assay [2] concerns the target T2, RPN13 Pru (1–150), oxidized (UniProt Q16186 1-150, oxidized with 0.05 % H2O2; the oxidized residues are not given).
T2 construct: RPN13 Pru domain, residues 1-150; also called oxi-RPN13^Pru; not shown: His6, N-terminal, cleaved
Briefly: ITC; RPN2 (940–953) in the syringe (205.7 or 160 μM), RPN13 Pru in the cell (20.57 or 16 μM); 25 °C, non-reducing buffer: 20 mM sodium phosphate, 50 mM NaCl, pH 6.0; one-site fit.

The target in assay [3] is T3, oxi-RPN13^Pru following incubation with 3-fold molar excess TXNL1^Trx (UniProt Q16186 1-150, oxidized with 0.05 % H2O2, then treated with TXNL1 Trx).
T3 construct: RPN13 Pru domain, residues 1-150; source: E. coli BL21(DE3) pLysS, purified; not shown: His6, N-terminal, cleaved
The assay is described as above.

T3 sequence (Q16186 1-150): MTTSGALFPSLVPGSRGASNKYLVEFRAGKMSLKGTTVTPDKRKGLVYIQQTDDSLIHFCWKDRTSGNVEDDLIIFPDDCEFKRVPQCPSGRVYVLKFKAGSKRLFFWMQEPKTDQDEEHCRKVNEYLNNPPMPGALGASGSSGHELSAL
T2 sequence (Q16186 1-150): as above
T1 sequence (Q16186 1-150): as above

B1: RPN2 peptide (940–953) (peptide, UniProt Q99460 940-953, looked up)
chain: QEPEPPEPFEYIDD
notes: The construct has a PreScission site after GST, but the methods tell only of elution as the GST fusion; ITC and NMR speak of the RPN2 peptide; also called RPN2 (940–953); RPN2^940–953
As for B1, the Kd in assay [1] was 12.4 ± 5.29 nM; in assay [2], 40 ± 15.3 nM; in assay [3], 18.9 ± 5.7 nM.

A word on the Kd: it is the equilibrium constant for the complex coming apart. A higher Kd goes with lower affinity.
